Data reported in US20230348630A1 (BEIJING MABWORKS BIOTECH, published 2023).
Where two headings read alike, the source gives them in different places.

T1: BCMA-his protein (Cat #: BCA-H522y, ACRO) (human, UniProt Q02223 1-54)
T1 construct: Bought recombinant protein; the construct is most likely only a soluble part of it; also called BCMA protein; human BCMA
T1 sequence: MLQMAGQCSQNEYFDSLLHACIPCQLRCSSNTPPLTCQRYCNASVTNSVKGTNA

T2: human BCMA on HEK293A/human BCMA cells (human, UniProt Q02223 1-184)
T2 sequence: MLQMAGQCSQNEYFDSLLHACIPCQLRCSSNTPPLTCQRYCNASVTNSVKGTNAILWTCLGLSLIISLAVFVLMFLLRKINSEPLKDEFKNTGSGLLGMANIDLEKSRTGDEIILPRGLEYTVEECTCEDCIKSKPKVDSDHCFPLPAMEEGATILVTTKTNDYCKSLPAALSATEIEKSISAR

T3: mouse BCMA on HEK293A/mouse BCMA cells (mouse, UniProt O88472 1-185)
T3 sequence: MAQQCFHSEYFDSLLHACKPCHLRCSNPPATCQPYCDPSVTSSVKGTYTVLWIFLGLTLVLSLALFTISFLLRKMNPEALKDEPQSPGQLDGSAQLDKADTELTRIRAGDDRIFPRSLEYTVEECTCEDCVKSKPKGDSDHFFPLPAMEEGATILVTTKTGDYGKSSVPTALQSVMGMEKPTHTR

T4: human TACI on HEK293A/human TACI cells (human, UniProt O14836 1-293)
T4 sequence: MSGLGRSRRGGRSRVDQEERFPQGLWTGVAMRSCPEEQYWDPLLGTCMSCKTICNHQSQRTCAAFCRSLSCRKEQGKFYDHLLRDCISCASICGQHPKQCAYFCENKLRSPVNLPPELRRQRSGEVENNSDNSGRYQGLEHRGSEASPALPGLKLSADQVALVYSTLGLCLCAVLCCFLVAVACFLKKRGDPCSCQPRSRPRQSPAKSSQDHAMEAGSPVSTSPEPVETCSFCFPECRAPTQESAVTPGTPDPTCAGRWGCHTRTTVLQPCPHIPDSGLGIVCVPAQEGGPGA

T5: human BAFFR on HEK293A/human BAFFR cells (human, UniProt Q96RJ3 1-184)
T5 sequence: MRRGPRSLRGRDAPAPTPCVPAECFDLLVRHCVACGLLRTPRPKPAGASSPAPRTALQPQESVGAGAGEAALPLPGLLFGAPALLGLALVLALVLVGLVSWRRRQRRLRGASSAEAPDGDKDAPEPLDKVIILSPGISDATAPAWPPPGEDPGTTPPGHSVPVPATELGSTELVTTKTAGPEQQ


Experiments:
[1] = target: T6, CD3D&E protein (Cat #: CT038-H2508H, Sino Biological) (human, UniProt P04234 22-105; P07766 23-126); experiment: ELISA, coated CD3D&E
T6 construct: Bought complex of the delta and epsilon chains; also called CD3D&E complex; human CD3D&E complex
T6 sequence (P04234 22-105, form in doubt, chain 1 of 2): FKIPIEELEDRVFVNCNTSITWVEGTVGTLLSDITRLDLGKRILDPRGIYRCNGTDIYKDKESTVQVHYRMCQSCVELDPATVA
T6 sequence (P07766 23-126, form in doubt, chain 2 of 2): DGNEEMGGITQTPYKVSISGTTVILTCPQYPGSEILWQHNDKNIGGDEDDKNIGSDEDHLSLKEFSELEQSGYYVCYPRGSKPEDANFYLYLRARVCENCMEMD
Method: (§1) The purified bispecific antibodies were tested for their binding capability to recombinant human CD3 and human BCMA proteins by ELISA, following the protocols in Example 4 and Example 9.

[2] = target: T1, BCMA-his protein (Cat #: BCA-H522y, …); experiment: ELISA, coated BCMA protein
Method: (§2) Briefly, an ELISA plate was coated with 100 μl 1 μg/ml BCMA protein (Cat #: BCA-H522y, ACRO) in PBS overnight at 4° C. Then, the plate was blocked with 250 μl PBST with 4% skimmed milk at room temperature for 1 h. […] The negative control well was added with PBST instead of the antibody. The plate was washed with PBST for three times, added with 100 μl HRP conjugated goat anti-human IgG (1:7000, Cat #: 31413, thermofisher), and incubated at room temperature for 1 h. The plate was washed again with PBST for four times, added with 100 μl freshly prepared TMB (Cat #: 555214, BD, USA), and left still for color development, which was terminated with 50 μl 10% H₂SO₄. The absorbance was read at 450 nm, and the data was processed and analyzed using GraphPad.
as §1

CD3 on Jurkat cells = target: T7, CD3 on Jurkat cells (UniProt P04234 22-171; P07766 23-207); experiment: flow cytometry on Jurkat cells
T7 construct: whole, on cells
T7 sequence (P04234 22-171, chain 1 of 2): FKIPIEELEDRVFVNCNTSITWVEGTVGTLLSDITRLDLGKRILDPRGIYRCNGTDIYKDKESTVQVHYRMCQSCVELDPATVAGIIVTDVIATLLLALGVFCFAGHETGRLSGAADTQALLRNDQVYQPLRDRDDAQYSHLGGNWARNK
T7 sequence (P07766 23-207, chain 2 of 2): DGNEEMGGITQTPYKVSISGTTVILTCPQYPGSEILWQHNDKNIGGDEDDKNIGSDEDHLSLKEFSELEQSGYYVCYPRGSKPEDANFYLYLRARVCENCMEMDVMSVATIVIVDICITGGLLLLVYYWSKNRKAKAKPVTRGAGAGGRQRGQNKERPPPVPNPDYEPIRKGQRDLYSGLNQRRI
Method: Jurkat cells were collected, centrifuged at 300 g for 5 min, and suspended in PBS. After another centrifugation, the cells were suspended in 2% FBS-PBS at the cell density of 3×10⁶/ml, and […] were plated onto a U-bottom plate. The plate was added with 50 μl serially diluted anti-CD3 antibodies of the disclosure in 2% FBS-PBS (4-fold dilution, starting at 20 μg/ml), and incubated at room temperature for 1 h. The plate was washed with 2% FBS-PBS for three times, added with 50 μl PE-labeled goat-anti-human IgG (H+L) (1: 500), and incubated at room temperature for 45 min. The plate was washed with 2% FBS-PBS again for three times, and added with 150 μl 2% FBS-PBS to suspend the cells. The plate was measured for cell fluorescence using a cytometry, and the data was processed with FlowJo and analyzed with GraphPad.
Following the protocol of Example 11, the bispecific antibodies of the disclosure were tested for their binding capability to Jurkat cells.

[3] = target: T6, CD3D&E protein (Cat #: CT038-H2508H, …); experiment: SPR (BIAcore 8K), protocol of Example 10
Method: Following the protocols in Example 5 and Example 10, the bispecific antibodies of the disclosure were tested for their binding affinity to CD3D&E and human BCMA.

[4] = target: T2, human BCMA on HEK293A/human BCMA cells; experiment: flow cytometry on HEK293A/human BCMA cells
Method: (§3) The anti-BCMA antibody's binding capability to cell surface BCMAs was tested by FACS. Briefly, HEK293A/human BCMA cells, HEK293A/monkey BCMA cells and HEK293A/mouse BCMA cells, as generated in Example 1, were collected, digested with trypsin, and subjected to centrifugation at 300 g for 5 min. The cells were suspended in PBS, and subjected to centrifugation again. The cells were re-suspended in PBS with 2% FBS at the cell density at 4×10⁶/ml, and 50 μl cells were seeded onto a U-bottom plate. […] The plate was washed with 2% FBS-PBS for three times, added with 50 μl PE-labeled goat-anti-human IgG (H+L) (1: 500), and incubated at room temperature for 45 min. The plate was washed with 2% FBS-PBS again for three times, and added with 150 μl 2% FBS-PBS to suspend the cells. The plate was measured for cell fluorescence using a cytometry, and the data was processed with FlowJo and analyzed with GraphPad.
(§4) Following the protocol of Example 6, the bispecific antibodies of the disclosure were tested for their binding capability to the HEK293A/human BCMA cells, HEK293A/monkey BCMA cells, and HEK293A/mouse BCMA cells as generated in Example 1.

[5] = target: T8, monkey BCMA on HEK293A/monkey BCMA cells (monkey, UniProt Q02223 1-184 (human entry)); experiment: flow cytometry on HEK293A/monkey BCMA cells
T8 sequence (Q02223 other isoform, or with tags, fused parts or gaps): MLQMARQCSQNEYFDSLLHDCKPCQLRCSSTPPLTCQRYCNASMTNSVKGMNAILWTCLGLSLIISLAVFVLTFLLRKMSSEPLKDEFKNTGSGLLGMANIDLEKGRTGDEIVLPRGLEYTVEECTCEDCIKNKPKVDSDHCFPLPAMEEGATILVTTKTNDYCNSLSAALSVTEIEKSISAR
Method: as §3, §4

[6] = target: T3, mouse BCMA on HEK293A/mouse BCMA cells; experiment: flow cytometry on HEK293A/mouse BCMA cells [continued) F]
Method: as §3, §4

[7] = target: T1, BCMA-his protein (Cat #: BCA-H522y, …); experiment: ELISA, coated BCMA protein; remark: listed apart in the source
Method: as §2

[8] = target: T2, human BCMA on HEK293A/human BCMA cells; experiment: flow cytometry on HEK293A/human BCMA cells; remark: listed apart in the source
Method: as §3

[9] = target: T4, human TACI on HEK293A/human TACI cells; experiment: flow cytometry on HEK293A/human TACI cells
[10] = target: T3, mouse BCMA on HEK293A/mouse BCMA cells; experiment: flow cytometry on HEK293A/mouse BCMA cells
Method: as §3

[11] = target: T5, human BAFFR on HEK293A/human BAFFR cells; experiment: flow cytometry on HEK293A/human BAFFR cells
[12] = target: T8, monkey BCMA on HEK293A/monkey BCMA cells; experiment: flow cytometry on HEK293A/monkey BCMA cells; remark: listed apart in the source
Method: as §3

[13] = target: T2, human BCMA on HEK293A/human BCMA cells; experiment: flow cytometry on HEK293A/human BCMA cells, without soluble BCMA
Method: Briefly, 10⁵ HEK293A/human BCMA cells in 100 μl culture medium were seeded on a 96-well plate, and the plate […] After 1-h incubation at 4° C., the plate was washed with PBS for three times, added with APC-goat-anti-mouse IgG (1:500 dilution, Cat #: 405308, BioLegend, US), inducted at 4° C. for 1 h, washed with PBS for three times, and measured for cell fluorescence using a FACS analyzer (BD).

[14] = target: T1, BCMA-his protein (Cat #: BCA-H522y, …); experiment: SPR (BIAcore 8K), antibody captured by anti-human Fc, BCMA protein as analyte
Method: Briefly, the mouse anti-human Fc antibody (Cat #: BR100839, cytiva) was coupled to CMS biosensor chip. […] Chip regeneration was performed with 3 M MgCl₂.

[15] = target: T2, human BCMA on HEK293A/human BCMA cells; experiment: flow cytometry on HEK293A/human BCMA cells in the presence of 1 µg/ml soluble human BCMA-his protein
Method: Briefly, 10⁵ HEK293A/human BCMA cells in 100 μl culture medium were seeded on a 96-well plate, and the plate was further added with 50 μl serially diluted antibody or PBS followed by the human BCMA-his proteins (Cat #: 10620-H08H, Sino Biological) at the final concentration of 1 μg/ml. After 1-h incubation at 4° C., the plate was washed with PBS for three times, added with APC-goat-anti-mouse IgG (1:500 dilution, Cat #: 405308, BioLegend, US), inducted at 4° C. for 1 h, washed with PBS for three times, and measured for cell fluorescence using a FACS analyzer (BD).

Binder | EC50 [1] | EC50 [2] | EC50 (CD3 on Jurkat cells) | Kd [3] | EC50 [4] | EC50 [5] | binding result [6] | EC50 [7] | EC50 [8] | binding result [9] | binding result [10] | binding result [11] | EC50 [12] | EC50 (read off the curve) [13] | Kd [14] | EC50 (read off the curve) [15]
anti-CD3/BCMA bispecific antibody MBS305-L-KIH (bispecific antibody, human IgG1, kappa, L234A L235A, N297A) heavy 1: QVQLVQSGAEVKKPGASVKVSCKASGYTFTNHIIHWVRQAPGQGLEWMGYINPYPGYHGYNDKFSGRATMTSDTSTSTVYMELSSLRSEDTAVYYCARDGYYRDQDVLDYWGQGTLVTVSSASTKGPSVFPLAPSSKSTSGGTAALGCLVKDYFPEPVTVSWNSGALTSGVHTFPAVLQSSGLYSLSSVVTVPSSSLGTQTYICNVNHKPSNTKVDKKVEPKSCDKTHTCPPCPAPEAAGGPSVFLFPPKPKDTLMISRTPEVTCVVVDVSHEDPEVKFNWYVDGVEVHNAKTKPREEQYASTYRVVSVLTVLHQDWLNGKEYKCKVSNKALPAPIEKTISKAKGQPREPQVYTLPPSREEMTKNQVSLSCAVKGFYPSDIAVEWESNGQPENNYKTTPPVLDSDGSFFLVSKLTVDKSRWQQGNVFSCSVMHEALHNHYTQKSLSLSPGK light 1: not shown heavy 2: QVQLVQSGAEVKKPGASVKVSCKASGYTFTNHIIHWVRQAPGQGLEWMGYINPYPGYHGYNDKFSGRATMTSDTSTSTVYMELSSLRSEDTAVYYCARDGYYRDQDVLDYWGQGTLVTVSSGGGGSGGGGSGGGGSGGGGSDIQMTQSPSSLSASVGDRVTITCKASQDISQYLNWYQQKPGKAPKLLIYYTSGLHPGVPSRFSGSGSGTDFTFTISSLEPEDEATYYCQQGYALPWTFGQGTKLTAKRGGGGSGGGGSGGGGSEVQLVESGGGLVQPGRSLRLSCAASGFTFGDYAMHWVRQAPGKGLEWVSGISWNHGHIGYADSVKGRFTISRDNAKKSLYLQMNSLRAEDTALYYCAKDNSGYGHYYYGMDVWGQGTTVTVASASTKGPSVFPLAPSSKSTSGGTAALGCLVKDYFPEPVTVSWNSGALTSGVHTFPAVLQSSGLYSLSSVVTVPSSSLGTQTYICNVNHKPSNTKVDKKVEPKSCDKTHTCPPCPAPEAAGGPSVFLFPPKPKDTLMISRTPEVTCVVVDVSHEDPEVKFNWYVDGVEVHNAKTKPREEQYASTYRVVSVLTVLHQDWLNGKEYKCKVSNKALPAPIEKTISKAKGQPREPQVYTLPPSREEMTKNQVSLWCLVKGFYPSDIAVEWESNGQPENNYKTTPPVLDSDGSFFLYSKLTVDKSRWQQGNVFSCSVMHEALHNHYTQKSLSLSPGK light 2: not shown | 0.267 µg/mL | 0.0196 µg/mL | 0.00301 µg/mL | 675 nM | 0.187 µg/mL | 0.289 µg/mL | no binding (tested: about 30000 ng/ml (LOG10 about 4.5)) |  |  |  |  |  |  |  |  | 
anti-BCMA antibody A6-3, full-length human IgG1/kappa (antibody, V domains shown, Expressed in HEK293F cells, purified on Protein A) VH: QVQLVQSGAEVKKPGASVKVSCKASGYTFTNHIIHWVRQAPGQGLEWMGYINPYPGYHGYNDKFSGRATMTSDTSTSTVYMELSSLRSEDTAVYYCARDGYYRDQDVLDYWGQGTLVTVSS VL: DIQMTQSPSSLSASVGDRVTITCKASQDISQYLNWYQQKPGKAPKLLIYYTSGLHPGVPSRFSGSGSGTDFTFTISSLEPEDIATYYCQQGYALPWTFGQGTKVEIKR |  |  |  |  |  |  |  | 0.00733 µg/mL | 0.0415 µg/mL | no binding (tested: 100 µg/ml and 10 µg/ml) | no binding | no binding (tested: 100 µg/ml and 10 µg/ml) | 0.0986 µg/mL | ~0.4 µg/mL | 0.132 nM | ~1 µg/mL
